# Assay results taken from the nanobody polyreactivity screen of Harvey et al. (2022).
# Test: yeast display, Sf9 membrane polyspecificity reagent, FACS + sequencing; frameworks hold sequencing errors
# How it was run: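 A nanobody's polyreactivity label depends on the gate it was sorted from. Yeast display cells were stained with 10% biotinylated, detergent-solubilized Sf9 membrane reagent for 1 hour at 4 °C, enriched on streptavidin microbeads and sorted by FACS. The low and high (top ~1%) gates were set on anti-HA fluorescence for expression and streptavidin fluorescence for reagent binding.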
row,Sequence,polyreactivity (PSR sort gate)
1,QVQLVESGGGLVQAGGSLRLSCAASGSIFRVYAMGWYRHAPGKERELVATITWNGGSTYYADSVKGRFTISRDNAKNTVYLQMNSLKPEDTAVYYCAAGRDTWPSTYYYWGQGSQVTVSS,low polyreactivity
2,QVQLVESGGGLVQAGGSLRLSCAASGSIFRVYAMGWYRPAPGKERELVASISRRGGSTYYADSVKGRFTISRDNEKNTVYLHMNILKPEDTAVYYCAAEFVIGVHCYDYWGQVTQVTVSS,high polyreactivity
3,QVQLVESGGGLVQAGGSLRLSCAASGSIFRVYAMGWYRQAPGKERELVAAITRGGSTYADSVKGRFTISRDNAKNTVYLQMNSLKPEDTAVYYCAARVSYWGQGTQVTVSS,high polyreactivity
4,QVQLVESGGGLVQAGGSLRLSCAASGSIFRVYAMGWYRQAPGKERELVAGITGRGGSTYYADSVKGRFTISRDNAKNTVYLQMNSLKPEDTAVYYCNRRYRYGRDYWGQGTQVTVSS,high polyreactivity
5,QVQLVESGGGLVQAGGSLRLSCAASGSIFRVYAMGWYRQAPGKERELVAGITWTGTRTYYADSVKGRFTISRDNAKNTVYLQMNSLKPEDTAVYYCAARYTIRYKRYDYWGQGTQVTVSS,high polyreactivity
6,QVQLVESGGGLVQAGGSLRLSCAASGSIFRVYAMGWYRQAPGKERELVARISRGGRTNYADSVKGRFTISRDNAKNTVYLQMNSLKPEDTSVYYCAADVVSLESYSYQSLGYDSWGQGTQVNVSS,high polyreactivity
7,QVQLVESGGGLVQAGGSLRLSCAASGSIFRVYAMGWYRQAPGKERELVARISWSDDGTYYADSVKGRFTISRDNAKNTVYLQMNSLKPEDTAVYYCNADSYYYPYDYWGQGTQVTVSS,low polyreactivity
8,QVQLVESGGGLVQAGGSLRLSCAASGSIFRVYAMGWYRQAPGKERELVASISRRGGSTYYADSVKGRFTISRDYAKNTVYLQMNSLKPEDTAVYYCAAEFVIGGHGYDYWGQGTQVSVSS,high polyreactivity
9,QVQLVESGGGLVQAGGSLRLSCAASGSIFRVYAMGWYRQSPGKERELVASIRSRGGSTYYADSVKGRFTISRDNAKNTVYLQMNSLKPEDTAVYYCGKSYWGGDEYWGQGTQVTVSS,low polyreactivity
10,QVQLVESGGGLVQAGGSLRLSCAASGSIFRVYGMGWYRQAPGKERELVAAITWSGGSTYYADSVKGRFTISRDNAKNTVYLQMNSLKPEDTAVYYCAARHKYAFWTAFGNYWGQGTQVTVSS,high polyreactivity
11,QVQLVESGGGLVQAGGSLRLSCAASGSIFRVYGMGWYRQAPGKERELVAAITWSGGSTYYADSVKGRFTISRDNAKNTVYLQMNSLKPEDTAVYYCNADKFRRYGYWGQGTQVTVSS,high polyreactivity
12,QVQLVESGGGLVQAGGSLRLSCAASGSIFRWNAMGWYRQAPRKEREMVAAIDYSGGSTYYADSVKGRFTISRDNAKKTVYLQMNSLKPEDTAVYFCADTAYYGGYLRYDYWGQGTQVTVSS,low polyreactivity
13,QVQLVESGGGLVQAGGSLRLSCAASGSIFRWYAMGWYRQAPGKERELVAAISTSGGNTYYADSVKGRFTISRDIAKITVYLQMKSLKPEDTAVYYCNALWYRSLSYRYDYWGQGTQVTVSS,high polyreactivity
14,QVQLVESGGGLVQAGGSLRLSCAASGSIFRWYAMGWYRQAPGKERELVAGITRGGRTNYADSVKGRFTISRDNAKNTVYLQMNSLKPEDTAVYYCAKVSRSKQKFDYWGQGTQVTVSS,high polyreactivity
15,QVQLVESGGGLVQAGGSLRLSCAASGSIFRYNAKGWYRQAPGKERELVAARRSRGGSTNYADSVKGRFTISRDNAKNTVYLQMNSLKPEDNAVYFCAADGSYTKTTIYIFGGLDFWGQGTQVTVSS,low polyreactivity
16,QVQLVESGGGLVQAGGSLRLSCAASGSIFRYNAMGWDRQAPGKERELVAGITWGGSTYYADSVKGRFTISRDNAKNTVYLQMNSLKPEDTAVYYCAAGRYGDYGYWGQGTQVTVSS,high polyreactivity
17,QVQLVESGGGLVQAGGSLRLSCAASGSIFRYNAMGWYRQAPGKERELVAAIRSGGSTYYADSVKGRFTISRDNAKNTVYLQMNSLKPEDTAVYYCNARRYVGYDYWGQGTQVTVSS,high polyreactivity
18,QVQLVESGGGLVQAGGSLRLSCAASGSIFRYYAMGWYRQAPGKEREFVAAISASGGSTYYADSVKGRFTISRDNAKNTVYLQMNSLKPEDTAVYYCAARYSYRRPGGYPFGSWGQGTQVTVSS,high polyreactivity
19,QVQLVESGGGLVQAGGSLRLSCAASGSIFRYYAMGWYRQAPGKEREFVAAITRSGGSTTYADSVKGRFTISRDNAKNTVYLQMNSLKPEDTAVYYCNAKSSRFQVFNYGYWGQGTQVTVSS,high polyreactivity
20,QVQLVESGGGLVQAGGSLRLSCAASGSIFRYYAMGWYRQAPGKEREFVARISVSGGSTYYADSVKGRFTISRDNAKNAVYLQMNSLKPEDTAVYYCNTADFRSRYPAMGYWGQGTQVNVSS,low polyreactivity
21,QVQLVESGGGLVQAGGSLRLSCAASGSIFRYYAMGWYRQAPGKERELVAAIRRSGASTYYADSVKGRFTISRDNAKNTVYLHMNSLKPEDTAVYYCAASSFNNGHRYDYWGQGTQVTVSS,high polyreactivity
22,QVQLVESGGGLVQAGGSLRLSCAASGSIFRYYAMGWYRQAPGKERELVAAISGSGASTYYADSVKGRFTISRDNAKNTVYLQMNSLKPEDTEVYFCAAYRGPRHHYPSVYNWGYDYWGQGTQVTVSS,high polyreactivity

row,Sequence,polyreactivity (PSR sort gate)
1,QVQLVESGGGLVQAGGSLRLSCAASGSIFRYYAMGWYRQAPGKERELVAAISNRGSSTNYADSVKGRFTISRDNAKNTVYLQMNSLKPEDTAVYYCAARVRYPGLSGNMYYWGQGTQVTVSS,high polyreactivity
2,QVQLVESGGGLVQAGGSLRLSCAASGSIFRYYAMGWYRQAPGKERELVAAITSGGRTNYADSVKGRFTISRDNAKNTVYLQMNSLKPEDSAVYYCNKGYNAVWRYRGDYWGQGTQVTVSS,high polyreactivity
3,QVQLVESGGGLVQAGGSLRLSCAASGSIFRYYAMGWYRQAPGKERELVATISSSGGTTYYADSVKGRFTISRDNAKNTVYLQMNSLKPEDTAVYYCAALWTWHVSYPVHEYDYWGQGTQVTVSS,low polyreactivity
4,QVQLVESGGGLVQAGGSLRLSCAASGSIFRYYAMGWYRQAPGKERELVATISSSGGTTYYADSVKGRFTISRDNAKNTVYLQMNSLKPEETAVYYCAALWTWHVSYPVHEYDFWGQGTQVTVSS,low polyreactivity
5,QVQLVESGGGLVQAGGSLRLSCAASGSIFRYYAMVWYRQAPGKERELVAAISSGGNTKYADSVKGRFTISRDNAKNTVYLQRNSLKPADTAVYYCNADGKAGGDYDYWGQGTQVTVSS,low polyreactivity
6,QVQLVESGGGLVQAGGSLRLSCAASGSIFRYYTMGWYRQAPGKERELVAAISSRGGSTYYADSVKGRFTISRDNAKNTVYLQMNSLKPEDTAVYYCNVLVKRAYQYTYGVDYWGQGTQVTVSS,high polyreactivity
7,QVQLVESGGGLVQAGGSLRLSCAASGSIFRYYVMGWYRQAPGKERELVASISYSVGRTYYADSVKGRFTISRDNAKNTVYLQMNSLKPEDTAVYYCAADRYWPYYSAYYTSYRMDYWGQGTQVTVSS,high polyreactivity
8,QVQLVESGGGLVQAGGSLRLSCAASGSIFSAYAMGWYRQAPGKERELVAAISYGGGSTYYADSVKGRFTISRDNAKNTVYLQMNSLKAEDTAVYYCAAASSGEYGYWGQGTQVTVSS,low polyreactivity
9,QVQLVESGGGLVQAGGSLRLSCAASGSIFSAYSMGWYRQAPGKERELVAAISKSGSSTYYADSVKGRFTISRDNANNTVYFQMNSLKPEDTAVYYCAAKRAGPYGITKGMDYWGQGTQVSVSS,high polyreactivity
10,QVQLVESGGGLVQAGGSLRLSCAASGSIFSDNAMGWYRQAPGKERELVAAITYSGGRTSYADSVKGRFTISRDNAKNTVYLQMNSLKPEDTAVYYCAVGSHSRSSNSYYYWGQGTQVTVSS,low polyreactivity
11,QVQLVESGGGLVQAGGSLRLSCAASGSIFSDYAMGWYRQAPGEERELVAAINSGVSTSYADSVKGRFTISRDNAKNTVYLQMNSLKPEDTAVYYCAKDGSSPSPWYGGFGYWGQGTQVTVSS,low polyreactivity
12,QVQLVESGGGLVQAGGSLRLSCAASGSIFSDYAMGWYRQAPGKERELVAASTQSGGSTYADSLKGRFSISRDNAKNTVYLQMNSLKPEDTAVYYCADRHDKRRQYYVGQSAFDYWGQGTQVTVSS,low polyreactivity
13,QVQLVESGGGLVQAGGSLRLSCAASGSIFSDYTMGWYRQAPGKERELVAAISGIGGSTYYADSVKGRFTISRDNAKNTVYLQMNSLKPEDTAVYYCAADDYYYPYVSHDYWGQGTQVTVSS,low polyreactivity
14,QVQLVESGGGLVQAGGSLRLSCAASGSIFSDYVMGWSRQAPGKERELVATISRGGGSTFYADSVKGRFTISRDTAKNTVYLQMNSLKPEDTAVYYCAAPPGPSGAKYDYWGQGTQVTVSS,low polyreactivity
15,QVQLVESGGGLVQAGGSLRLSCAASGSIFSENTMGWYRQAPGKKRELVADITSGGSTNYADSVKGRFTISRDNAKNTVYLQMNSLKPEDTAVYYCAADYNGEYDYWGQGTQVTVSS,low polyreactivity
16,QVQLVESGGGLVQAGGSLRLSCAASGSIFSFNAMGWYRQAPGKEREFVAAIFGVTRTYYADSVKGRFTISRDNAKNTVYLQMNSLKPEDTAVYYCAARPPYRRYSEPRFGYWGQGTQVTVSS,high polyreactivity
17,QVQLVESGGGLVQAGGSLRLSCAASGSIFSFNAMGWYRQAPGKERELVAVITQRGGSTYYADSVKGRFTISRDNAKNTVYLQMNSLKPEDTAVYYCAARTPRGYYYWGQGTQVTVSS,high polyreactivity
18,QVQLVESGGGLVQAGGSLRLSCAASGSIFSFYSMGWYRQAPGKERELVSGITWSGGSTYYADSVKGRFTISRDNAKNTVYLQMNSLKPEDTAVYYCAKTKWYYWYTSFPSVQSYDYWGQGTHVTVSS,high polyreactivity
19,QVQLVESGGGLVQAGGSLRLSCAASGSIFSFYTMGWYRQAPGKERELVASSTTYADSVKGRFTISRDNAKNTVYLQMNSLKPEDTAVYYCAAEYYSSITGWYYYWGQGTQVTVSS,low polyreactivity
20,QVQLVESGGGLVQAGGSLRLSCAASGSIFSGNAMGGYRQAPGKERELVAAISRTGTRTFYADSEKGRFTISRDNAKNTVYLQMNSLKPEDTAVYYCAADNPDGDGYDYWGQGTQVTVSS,high polyreactivity
21,QVQLVESGGGLVQAGGSLRLSCAASGSIFSGNAMGWYRPAPGKGRELVAGSSRRGGRTYYADSVKGRFTISRDNAKNTVYIPMNSLKPEDPAVYYCNKDVFGDTREYDYWGQGTQVTVSS,high polyreactivity
